Measurements taken from paper PMC9418005.

Target: Omicron BA.1.1 spike trimer (includes the R346K mutation) (SARS-CoV-2) (UniProt P0DTC2)
Assay: Luminex spike-ACE2 surrogate neutralization assay

P5C3 LS monoclonal antibody gave a percent inhibition of ACE2 binding at 20 µg ml^−1 of 100%.
